Test in all cases: MST; one partner labelled with atto-488 NHS ester at a constant amount, unlabelled partner serially diluted 1:2; 30 mM HEPES pH 7.5, 100 mM K-Ac, 2 mM Mg-Ac, 14 mM BME, 0.01% NP-40; apparent Kd by the law of mass action
Assay [1] deals with N-terminal fragment of DEPS-1 (DEPS-1^frag1) (C. elegans) (UniProt Q9N303).
For assay [2], the target named is DEPS-1 PBS motif peptide (C. elegans).
Assay [3] addresses MBP-tagged full-length DEPS-1 (C. elegans) (UniProt Q9N303).
The target of assay [4] is T1, MBP-tagged full-length PRG-1 (C. elegans, UniProt P90786 1-824, Atto-594 label (in the cluster imaging only)).
T1 construct: PRG-1, the PIWI protein of C. elegans, full length; Cloned into pMAL-C5X; Unlabelled in the MST titration; also called MBP-PRG-1; MBP-PRG; source: E. coli BL21 (DE3), purified (RNaseA-treated lysate, amylose resin, size-exclusion chromatography)
T1 sequence (looked up): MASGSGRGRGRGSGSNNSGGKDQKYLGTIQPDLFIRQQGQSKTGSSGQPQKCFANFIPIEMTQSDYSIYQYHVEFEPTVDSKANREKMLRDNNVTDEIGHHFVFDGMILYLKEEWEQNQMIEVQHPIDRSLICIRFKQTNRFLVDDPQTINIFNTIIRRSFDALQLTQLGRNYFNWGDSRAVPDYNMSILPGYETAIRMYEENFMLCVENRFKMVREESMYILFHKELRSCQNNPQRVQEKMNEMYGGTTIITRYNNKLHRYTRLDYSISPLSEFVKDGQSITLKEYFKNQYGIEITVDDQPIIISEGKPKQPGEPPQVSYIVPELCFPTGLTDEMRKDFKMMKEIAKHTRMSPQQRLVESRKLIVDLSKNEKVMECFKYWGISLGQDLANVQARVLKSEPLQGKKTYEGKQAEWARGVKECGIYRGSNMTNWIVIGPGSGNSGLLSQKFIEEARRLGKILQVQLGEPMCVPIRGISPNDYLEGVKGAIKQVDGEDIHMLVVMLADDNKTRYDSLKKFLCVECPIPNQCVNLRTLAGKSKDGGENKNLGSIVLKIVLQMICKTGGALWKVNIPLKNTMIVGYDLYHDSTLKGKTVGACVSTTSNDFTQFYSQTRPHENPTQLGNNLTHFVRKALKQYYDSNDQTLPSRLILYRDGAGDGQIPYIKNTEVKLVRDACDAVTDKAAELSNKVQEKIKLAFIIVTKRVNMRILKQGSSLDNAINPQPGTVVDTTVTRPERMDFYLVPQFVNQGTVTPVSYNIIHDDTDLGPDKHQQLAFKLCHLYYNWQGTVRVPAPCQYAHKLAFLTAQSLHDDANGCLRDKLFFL
To be noted: both partners purified.

As for “MBP-tagged PRG-1 PIWI domain (from UniProt P90786 1-824) (domain or fragment)”, the Kd in assay [1] was 151 nM; in assay [2] it was 1900 nM; in assay [3], 349 nM.

B1: MBP-tagged full-length DEPS-1 (natural protein, C. elegans, UniProt Q9N303 1-619, looked up)
chain: MSERQSKYFDYQGIVISSTGQDNQDSETDLVYLIQAHGKAAPKNIMYGVSKCAFVPTNLERNFDNIEEAKNLERRSKIPLKFGEVILWNESDCDHDKRIILHIKREKPIYEASSSRNGLILKVGGVIQPTSTTSFWTPLCTVTMPETEATRAEPDVWLYAWIRFETTMKSGLDPFNMTATFESFDSCDPSDQARVCEAPWNAGSPDSKFGVWRPDPKPADSDDEIDIEPREGWHLPEDKWAEVIKMQLGLYVGERLLICKELSQFDFIIPLQKPFSRGTDKTLIYPAVGEYFHFSAIWSMQHNGFLIYELQPVPLLRQHVTSVNGNLLTRVVPASIRGLFVDKEGTLGLIDDPHHLLSFFEFHPAGYEFLKAMAEVRAVRTSENKSVRYRIVRTSGMSIFENWLRDTQFVVGPVKGIRINEDTVICAKHPNVYFKIPNNLKEGIPIGGGVQFVGKRQAGVDSEIMITECSPCPAFTCKNYSVSGDTRLFQVYLKPNCDHEQLAESDSMGFVDFRELETPCRGKFLAWVRESITVNDCRRAATIMEVCSTAICPPLIAMSANSSRATSARTTPAGSSIGSRSSIQSRASAATSVSSNRFVGPSSRRTPSGTPQSSTSSRV
modifications: atto-488 NHS ester label
notes: DEPS-1 (Defective P granules and Sterile-1), C. elegans P granule protein, full length; Cloned into pMAL-C5X; Labelled partner (10 nM) in the MST with MBP-PRG-1; also called MBP-DEPS-1; Defective P granules and Sterile-1; source: E. coli BL21 (DE3), purified (RNaseA-treated lysate, amylose resin, size-exclusion chromatography)
With B1, the Kd in assay [4] came to 855 ± 133 nM.

The record behind these values is publication PMC7447803, “DEPS-1 is required for piRNA-dependent silencing and PIWI condensate organisation in Caenorhabditis elegans” (Nature Communications, 2020).
